Measurements: patent publication US20090325867A1, “RECEPTOR-SPECIFIC TUMOUR NECROSIS FACTOR-RELATED APOPTOSIS-INDUCING LIGAND (TRAIL) VARIANTS” (MEDICAL RESEARCH COUNCIL, priority 2005, published 2009)

How the values were obtained:
[1] = target: T1, MCF-7 cells (Homo sapiens); assay: TRAIL DISC activation in MCF-7 cells; format: cell-based; conditions: FIG. 5B
T1 construct: the breast tumour cell line MCF-7 signals to apoptosis via TRAIL-R1; endogenous in cells; host or cells: MCF-7 (clone F43)
Description: Ramos and Jurkat T cells (clone E6-1) were cultured as described (MacFarlane et al, 2005 ibid.). The breast tumour cell line, MCF-7 (clone F43) was cultured as described previously (MacFarlane et al., 2000 J. Cell Biol. 148, 1239-1254). Cells were cultured for either 4 h (Ramos and Jurkat) or 6 h (MCF-7) with His-TRAIL (MacFarlane et al, 1997 J Biol Chem 272, 25417-25420), HGS-ETR1 or HGS-ETR2 (Human Genome Sciences), or a mutant form of His-TRAIL (MacFarlane et al, 2005 ibid.). Samples were analyzed for apoptosis, Western blotting, or TRAIL DISC activation as described (MacFarlane et al, 2005 ibid.; MacFarlane et al. 2002 Oncogene 21, 6809-6818). Mutants of His-TRAIL (residues 95-281) were generated using the Quik-Change site-directed mutagenesis kit (Stratagene, Calif.), confirmed by DNA sequencing, expressed in E. coli and purified as described (MacFarlane et al, 1997 ibid.). […] After 40 h of transfection the cells were collected and total TRAIL-R1 or TRAIL-R2 levels assessed. Where indicated, RNAi transfected MCF-7 cells were either left untreated or exposed to wt-TRAIL and apoptosis assessed by the extent of Bax activation, determined using the conformation specific Bax MAb, clone 3 (Dewson et al, 2003 Oncogene vol 22 pp 2643-54).
Apoptosis was quantified by measuring the processing of Caspase-8, Caspase-7 and PARP by Western blot analysis. […]

TRAIL-R1 (DR4) = target: T2, TRAIL-R1 (DR4) (Homo sapiens, UniProt O00220); assay: TRAIL-R1 selective apoptotic signalling (Ramos versus Jurkat cells); format: cell-based; conditions: from apoptosis in Ramos (TRAIL-R1) and Jurkat (TRAIL-R2) cells
T2 construct: Ramos and Jurkat cells, which signal predominantly through TRAIL-R1 and TRAIL-R2, respectively; endogenous in cells; host or cells: Ramos cells (Jurkat cells as TRAIL-R2 comparison)
From the text: Another test involves the assay of the effect in R1- (DR4-) only cells. This is the preferred test for DR4 selectivity as discussed herein. Preferably the ligand is applied to an R1-only signalling cell. Preferably the cell is a Ramos cell. Preferably the read-out is functional activity, preferably death-inducing activity (apoptosis). This is crucial to the test—mere binding is not as robust an indicator as functional induction of death. Thus, preferably a DR4 selective ligand according to the present invention induces death in a DR4 only signalling cell, such as a Ramos cell.
Ramos, an Epstein-Barr virus-negative Burkitt's lymphoma cell line, and Jurkat T cells (clone E6-1) were cultured as described (MacFarlane et al (2005 Cell Death and Differentiation vol 12 pages 773-782)). Blood samples were obtained from CLL patients, with patient consent and local ethical committee approval and CLL cells purified as described (MacFarlane et al (2002 Oncogene 21, 6809-6818). Cells were incubated for 16 h with depsipeptide (10 nM), provided by Dr. E. Sausville (NCI, USA). Cells were then cultured for a further 6 h with either HGSETR1 or HGS-ETR2, agonistic mAbs to TRAIL-R1 or -R2, respectively (Human Genome Sciences, Rockville, Md.), His-TRAIL-LE (a recombinant TRAIL with low endotoxin—Alexis Corporation, Nottingham, UK), His-TRAIL, a similar form of human recombinant TRAIL (MacFarlane et al (1997 J Biol Chem 272, 25417-25420)) but not further purified to reduce endotoxin levels or a mutant form of His-TRAIL as described (MacFarlane et al., 2005 ibid.). Cell lines were also pre-incubated for 30 min with a TRAIL-R1 blocking Ab and a TRAIL-R2 neutralizing Ab from Alexis and R&D systems, respectively, prior to exposure to TRAIL. Freshly isolated cells from patients with MCL were isolated, purified and incubated with different forms of TRAIL as described above for CLL cells. Samples were either analyzed immediately for apoptosis or stored at −80° C. for subsequent Western blotting. Other methods and reagents were as described (Inoue (2004 Cell Death Differ 11 Suppl 2, S193-206); MacFarlane et al., 2005 ibid).
(§1) Apoptosis was quantified by phosphatidylserine (PS) externalization in the presence of propidium iodide as described (MacFarlane et al., 2002 ibid.). Samples for Western blot analysis were prepared and caspase processing detected as described (Inoue et al., 2004 ibid.; MacFarlane et al., 2005 ibid.).
Referring to FIG. 4: Ramos cells (A) and Jurkat cells (B) were cultured with increasing concentrations of Arg191Leu or Asn199Val single mutants of His-TRAIL ([…]) or His-TRAIL (500 ng/ml), ETR1 or ETR2 (1000 ng/ml) for 4 h. Apoptosis was quantified by measuring the % PS+ cells and results shown in FIG. 4 are the Mean±SEM of three independent experiments. Thus the biological importance TRAIL residues R191 and N199 in TRAIL-R1 selectivity is shown.

primary MCL cells = assay: Apoptosis in freshly isolated primary MCL cells with or without depsipeptide pre-treatment; format: cell-based, human; conditions: pre-treatment 16 h with depsipeptide (5 nM), depsipeptide alone 35.4±5%
Description: Cell lines were also pre-incubated for 30 min with a TRAIL-R1 blocking Ab and a TRAIL-R2 neutralizing Ab from Alexis and R&D systems, respectively, prior to exposure to TRAIL. Freshly isolated cells from patients with MCL were isolated, purified and incubated with different forms of TRAIL as described above for CLL cells. Samples were either analyzed immediately for apoptosis or stored at −80° C. for subsequent Western blotting. Other methods and reagents were as described (Inoue (2004 Cell Death Differ 11 Suppl 2, S193-206); MacFarlane et al., 2005 ibid).
as §1
We also obtained three samples from patients with mantle cell lymphoma (MCL), an incurable and aggressive disease that accounts for ˜6% of all non-Hodgkin's lymphoma. There are no standard treatments for MCL and the prognosis is very poor particularly for the blastoid variant. MCL cells were isolated and exposed to the different forms of TRAIL after pre-treatment for 16 h with depsipeptide (5 nM).

[2] = target: TRAIL receptor 2 (TRAIL-R2) (Homo sapiens (Human)) (UniProt O14763)

B1: TRAIL.R1-5: 6His TRAIL 95-281 with 193Ser, 199Val, 201Arg, 213Trp and 215Asp (protein)
chain: TSEETISTVQEKQQNISPLVRERGPQRVAAHITGTRGRSNTLSSPNSKNEKALGRKINSWESSRSGHSFLSNLHLRNGELVIHEKGFYYIYSQTYFRFSEEIKEVTRNDKQMVQYIYKWTDYPDPILLMKSARNSCWSKDAEYGLYSIYQGGIFELKENDRIFVSVTNEHLIDMDHEASFFGAFLVG
modifications: biotin (site not stated) in the DISC analysis only; not biotinylated in the apoptosis assays
notes: 6His TRAIL 95-281 with 193Ser, 199Val, 201Arg, 213Trp and 215Asp
recruitment and processing of Caspase-8 at the DISC [1]: resulted in recruitment and processing Caspase-8 at the DISC
receptor selectivity of apoptotic activity (in words) (TRAIL-R1 (DR4)): R1 selective apoptotic activity
apoptosis, ligand or antibody after depsipeptide pre-treatment (primary MCL cells): 54.3±9.1%

B2: HGS-ETR2 (antibody, INN chains, looked up, V domains shown)
VH: EVQLVQSGGGVERPGGSLRLSCAASGFTFDDYGMSWVRQAPGKGLEWVSGINWNGGSTGYADSVKGRVTISRDNAKNSLYLQMNSLRAEDTAVYYCAKILGAGRGWYFDLWGKGTTVTVSS
VL: SSELTQDPAVSVALGQTVRITCQGDSLRSYYASWYQQKPGQAPVLVIYGKNNRPSGIPDRFSGSSSGNTASLTITGAQAEDEADYYCNSRDSSGNHVVFGGGTKLTVL
apoptosis of primary MCL cells after depsipeptide (5 nM, 16 h) [2]: 38.3%
apoptosis, ligand or antibody after depsipeptide pre-treatment (primary MCL cells): 38.3±4.3%
